# Results as given in US9156883B2, “Binding molecules for human factor VIII and factor VIII-like proteins” (DYAX CORP., priority 1999, dated 2015).
# Positions of bridges follow the written chain, without caps; N, C: chain ends. No end group written: not given here. *: point of attachment. NHNH2 = NN*
# Columns and labels:
# [1] = biological target: T1, factor VIII-like polypeptide (REFACTO®) (Homo sapiens, UniProt P00451); test: Affinity chromatography capture and elution of REFACTO® on immobilized peptide columns; format: binding; settings: bound material eluted in the presence of ethylene glycol
# T1 construct: amino acids 1-743 and 1638 through 2332 of human factor VIII; purchased Genetics Institute, Inc. (Cambridge, Mass.)
# T1 sequence (P00451 20-762): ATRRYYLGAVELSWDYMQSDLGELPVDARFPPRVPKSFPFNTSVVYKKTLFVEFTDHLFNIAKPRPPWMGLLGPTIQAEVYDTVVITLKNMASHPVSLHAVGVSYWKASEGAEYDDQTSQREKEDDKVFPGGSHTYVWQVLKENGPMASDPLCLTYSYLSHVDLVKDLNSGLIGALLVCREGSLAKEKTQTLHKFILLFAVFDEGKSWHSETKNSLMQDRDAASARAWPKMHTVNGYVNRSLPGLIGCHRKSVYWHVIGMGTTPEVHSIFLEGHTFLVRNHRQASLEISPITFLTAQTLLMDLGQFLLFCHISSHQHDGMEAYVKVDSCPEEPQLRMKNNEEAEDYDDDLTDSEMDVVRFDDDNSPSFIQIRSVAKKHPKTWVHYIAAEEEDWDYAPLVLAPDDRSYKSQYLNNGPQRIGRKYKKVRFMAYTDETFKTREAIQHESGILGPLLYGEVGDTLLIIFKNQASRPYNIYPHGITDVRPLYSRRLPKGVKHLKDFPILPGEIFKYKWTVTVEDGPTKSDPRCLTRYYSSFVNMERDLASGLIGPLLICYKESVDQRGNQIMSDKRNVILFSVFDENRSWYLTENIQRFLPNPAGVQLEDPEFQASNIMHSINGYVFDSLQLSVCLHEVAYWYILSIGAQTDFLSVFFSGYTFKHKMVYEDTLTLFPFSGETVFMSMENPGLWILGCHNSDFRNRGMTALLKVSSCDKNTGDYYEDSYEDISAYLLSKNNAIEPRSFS
# T1 sequence (P00451 1657-2351): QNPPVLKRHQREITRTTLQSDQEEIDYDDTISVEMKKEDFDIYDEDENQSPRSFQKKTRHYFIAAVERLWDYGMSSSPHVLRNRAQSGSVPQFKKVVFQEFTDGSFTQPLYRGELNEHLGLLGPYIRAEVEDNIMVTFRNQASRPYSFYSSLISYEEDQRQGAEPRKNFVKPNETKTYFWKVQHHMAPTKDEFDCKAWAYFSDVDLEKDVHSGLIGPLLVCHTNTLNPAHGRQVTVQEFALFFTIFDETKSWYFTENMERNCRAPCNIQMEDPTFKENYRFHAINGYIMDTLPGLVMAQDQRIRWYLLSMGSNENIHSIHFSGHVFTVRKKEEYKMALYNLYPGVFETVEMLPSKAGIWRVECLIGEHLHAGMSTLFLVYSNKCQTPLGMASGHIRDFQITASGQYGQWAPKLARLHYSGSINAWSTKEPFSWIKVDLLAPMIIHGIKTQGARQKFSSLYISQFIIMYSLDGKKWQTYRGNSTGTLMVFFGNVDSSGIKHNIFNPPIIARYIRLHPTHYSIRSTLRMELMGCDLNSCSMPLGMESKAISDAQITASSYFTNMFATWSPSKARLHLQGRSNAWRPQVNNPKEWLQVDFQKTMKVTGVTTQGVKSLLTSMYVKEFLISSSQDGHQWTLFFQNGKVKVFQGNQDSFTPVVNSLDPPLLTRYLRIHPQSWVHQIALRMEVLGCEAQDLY
# Method: The candidate ligands were immobilized onto a formyl-substituted ethylene glycol-methacrylate chromatographic resin (Toyopearl Formyl 650-M, pore size of ˜1000 Å; TosoHaas, Montgomeryville, Pa.). The hydrazide-containing peptides were immobilized by facilitating hydrazone bond formation, the GI-1 and -2 peptides were immobilized via reductive amination using NaCNBH3. The amount of polypeptide immobilized on the solid support was determined by quantifying the amount of free polypeptide remaining in solution. The amount of ligand immobilized per ml of resin was in the range of 0.7-1.5 μmol for the hydrazine-immobilized peptides.
# The nine peptides were evaluated by affinity chromatography for their ability to capture the REFACTO® described in Example I, under specific binding and release conditions.
# The factor VIII-like polypeptide (REFACTO®) was diluted in SP Buffer to a concentration of 150 μg/ml. The affinity resins (˜350 μl) were each packed into glass columns, and approximately 150 μg of the factor VIII target was applied to the prepared affinity columns at a flow rate of 200 μl/minute (linear velocity of 170 cm/hour). […] Fractions were collected and the mass and activity of recovered factor VIII-like polypeptide was determined by reversed-phase HPLC and by enzymatic assay.
# For the mass determination, a standard curve with REFACTO® (0-200 μg) was generated and the amount present in each fraction was calculated according to techniques well known in the art. Reversed-phase HPLC in the presence of 20 mM EDTA was used to disrupt the REFACTO® molecule into its component subunits, which were eluted with a gradient of acetonitrile/0.01% TFA. The activity assay was a Factor IX-, X-based assay. The results for each affinity resin are set forth below (Table 6).
# [2] = Peptide stability, Asp-Pro changed to Glu-Pro; format: physicochemical; settings: DP changed to EP versus GI-2; Asp-Pro hydrolysis particularly at low pH
# Description: Binding polypeptides were synthesized with the amino terminal residue acetylated and the carboxyl terminal residue as a free acid. The two cysteine residues are oxidized and form a disulfide bond which creates a cyclic peptide structure. The residues contained within the cyclic structure are underlined. The peptide sequence is identical to the sequence GI-2 shown in Table 4 except that the aspartic acid residue at position 19 has been changed to glutamic acid (bold).
Substance,capture of the factor VIII target by the affinity resin (in words) [1],peptide stability (in words) [2]
AEGTGDFCWVFPFQHCADPGPEGGGS-NHNH2 (disulfide 8-16 (inferred)) [CS-459],captured virtually all of the factor VIII target applied,–
AEGTGDFHCIGVWFCLHDPGPEGGGS-NHNH2 (disulfide 9-15 (inferred)) [CS-455],inability of the CS-455 and GI-1 resins to capture the target,–
AEGTGDHPCGSWLRPCLHDPGPEGGGS-NHNH2 (disulfide 9-16 (inferred)) [CS-453],captured virtually all of the factor VIII target applied,–
Ac-AEGTGDRLCSWVSPCSADPEGGGSK (cysteine pairing not given here) [GI-1],inability of the CS-455 and GI-1 resins to capture the target,–
"Acetyl-AEGTGDHRCGSWLHPCLAEPGEGGGGSK (Ac-AEGTGDHRCGSWLHPCLAEPGEGGGGSK; disulfide 9-16 (inferred)) [TN8.2, cyclic disulfide peptide, GI-2 with Asp at position 19 changed to Glu]",–,improved peptide stability
